Publication PMC7809043

Molecular target: mouse Atg7 (mAtg7) (mouse) (UniProt Q9D906)
Sequence (Q9D906 whole entry): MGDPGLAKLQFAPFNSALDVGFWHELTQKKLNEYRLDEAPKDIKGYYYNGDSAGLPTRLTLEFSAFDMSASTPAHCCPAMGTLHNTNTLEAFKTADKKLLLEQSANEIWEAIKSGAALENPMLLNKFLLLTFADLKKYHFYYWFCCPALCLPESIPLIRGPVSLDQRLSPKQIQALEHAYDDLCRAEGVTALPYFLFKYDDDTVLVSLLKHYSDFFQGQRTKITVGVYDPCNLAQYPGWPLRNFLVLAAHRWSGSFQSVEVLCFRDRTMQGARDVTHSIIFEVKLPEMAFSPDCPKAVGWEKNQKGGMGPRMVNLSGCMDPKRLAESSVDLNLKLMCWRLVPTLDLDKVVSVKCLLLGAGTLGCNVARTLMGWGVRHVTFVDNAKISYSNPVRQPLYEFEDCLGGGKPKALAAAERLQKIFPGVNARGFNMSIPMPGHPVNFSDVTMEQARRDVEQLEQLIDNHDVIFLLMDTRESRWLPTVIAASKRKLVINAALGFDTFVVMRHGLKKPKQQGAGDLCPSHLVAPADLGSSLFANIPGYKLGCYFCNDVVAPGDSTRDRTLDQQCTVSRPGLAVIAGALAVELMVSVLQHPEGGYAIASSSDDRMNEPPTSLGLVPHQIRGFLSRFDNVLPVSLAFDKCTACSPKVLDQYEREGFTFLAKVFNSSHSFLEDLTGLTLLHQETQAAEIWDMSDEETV

LC3B-hAtg3^∆90-190 thioester intermediate formed, after 1 h [%] | LC3B–PE conjugase activity compared to the wild type (in vitro conjugation assay) [%] | LC3B-hAtg3 thioester intermediate formed, within 30 min [%] | Substance
25 | 50 |  | hAtg3^∆90-190 (from UniProt Q9NT62 1-314) (enzyme)
 |  | 70 | human Atg3 (hAtg3), wild type (from UniProt Q9NT62 1-314) (enzyme)
